Numbering of substitutions follows the chain as printed.
Tests used:
human C4b (human) [1] = molecular target: T1, human C4b (human) (UniProt P0C0L4)
T1 sequence: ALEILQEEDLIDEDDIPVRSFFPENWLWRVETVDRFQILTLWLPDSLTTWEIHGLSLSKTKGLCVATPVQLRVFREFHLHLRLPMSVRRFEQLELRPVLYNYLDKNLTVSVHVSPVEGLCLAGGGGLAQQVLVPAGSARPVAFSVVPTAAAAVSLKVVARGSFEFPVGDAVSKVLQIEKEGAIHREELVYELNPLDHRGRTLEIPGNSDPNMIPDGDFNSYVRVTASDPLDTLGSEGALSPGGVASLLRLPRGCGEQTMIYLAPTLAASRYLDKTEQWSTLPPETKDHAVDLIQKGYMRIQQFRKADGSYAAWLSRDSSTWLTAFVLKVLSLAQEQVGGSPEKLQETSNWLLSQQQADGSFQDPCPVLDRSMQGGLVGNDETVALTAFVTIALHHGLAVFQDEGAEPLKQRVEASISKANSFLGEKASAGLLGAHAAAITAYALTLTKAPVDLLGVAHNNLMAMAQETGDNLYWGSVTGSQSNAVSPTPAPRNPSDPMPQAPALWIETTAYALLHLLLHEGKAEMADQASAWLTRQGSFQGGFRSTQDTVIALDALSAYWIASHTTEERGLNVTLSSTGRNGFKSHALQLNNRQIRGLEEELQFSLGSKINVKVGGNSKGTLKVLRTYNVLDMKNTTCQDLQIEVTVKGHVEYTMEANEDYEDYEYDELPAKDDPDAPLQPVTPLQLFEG

[2] = molecular target: soluble human C3b (human) (UniProt P01024)
human C4b (human) [3] = molecular target: T2, human C4b (human) (UniProt P0C0L5)
T2 sequence: T1 sequence with A151T, D317G, P364L, C365S, L368I, D369H, N420S, V451A, L454R, S530A

C4c EC50 (nM) (human C4b (human) [1]) | iC3b Screen Ref Fold (fold vs CFI-HSA wild type) [2] | C4b Screen Ref Fold (fold vs CFI-HSA wild type) (human C4b (human) [3]) | C4c EC50 (human C4b (human) [1]) [nM] | iC3b Screen Ref Fold (fold of CFI-HSA wild type) [2] | C4b Screen Ref Fold (fold of CFI-HSA wild type) (human C4b (human) [3]) | Substance
118 | 1.02 | 5.22 | – | – | – | CFI-HSA variant Y408L; N531G; P535A (enzyme)
– | – | – | 65.4 | 1.38 | 2.94 | CFI-HSA variant Y408L; N531G; P535G; D425K (enzyme)
– | – | – | 26.6 | 0.86 | 5.27 | CFI-HSA variant Y408L; E457G; N531G; P558S (enzyme)
34.8 | – | – | – | 2.15 | 4.66 | CFI-HSA variant Y408L; E457G; N531G; E416A (enzyme)
– | – | – | 43.5 | 1.39 | 5.23 | CFI-HSA variant N531G; K534Q (enzyme)
84.8 | 0.39 | 4.63 | – | – | – | CFI-HSA variant Y408L; N531G; E457G; E461Q (enzyme)
– | – | – | 51.6 | 1.87 | 4.46 | CFI-HSA variant E457G; N531G; P535G; N422K (enzyme)
81.4 | – | – | – | 3.03 | 2.64 | CFI-HSA variant N531G; D425R; E416A (enzyme)
– | – | – | 59.7 | 1.77 | 3.64 | CFI-HSA variant Y408L; E457G; N531G; P535G; N422K (enzyme)
– | – | – | 119 | 1.35 | 1.11 | CFI-HSA variant E487K (enzyme)
60.3 | 0.08 | 2.96 | – | – | – | WT; GGSSGG (SEQ ID NO: 6); CR1(ccp15-17); GGSSGG (SEQ ID NO: 6); fH(ccp1-4) (enzyme)
90.2 | 0.89 | 3.98 | – | – | – | CFI-HSA variant Y408L; E457G; E461Q; R462K (enzyme)
– | – | – | 32.2 | 1.12 | 5.01 | CFI-HSA variant Y408L; E457G; N531G; P535G; D425K (enzyme)
– | – | – | 118 | 0.93 | 4.47 | CFI-HSA variant N531G; P535G; K534Q (enzyme)
– | – | – | 224 | 0.23 | 2.42 | CFI-HSA variant S552G; Y553H; F559L (enzyme)
470 | 1.63 | 1.4 | – | – | – | CFI-HSA variant E530D-N531G; G533A-K534Q-P535K-E536N (enzyme)
82.7 | 0.92 | 5.97 | – | – | – | CFI-HSA variant Y408L; N531G; E461Q; R462K; F464Y (enzyme)
– | – | – | 375 | 2.1 | 1.96 | CFI-HSA variant S552G; P558S (enzyme)
– | – | – | 39.4 | 1.3 | 5.2 | CFI-HSA variant E457G; N531G; P535G; D425K (enzyme)
– | – | – | 48.4 | 0.95 | 3.66 | CFI-HSA variant Y408L; E457G; N531G; N422K (enzyme)
– | – | – | 54 | 1.27 | 5.48 | CFI-HSA variant E457G; N531G; P535G (enzyme)
– | – | – | 50.1 | 1.43 | 4.99 | CFI-HSA variant Y408L; N531G; D425K (enzyme)

Further lines, the substance ahead of its results:

Substance | C4c EC50 (nM) (human C4b (human) [1]) | iC3b Screen Ref Fold (fold vs CFI-HSA wild type) [2] | C4b Screen Ref Fold (fold vs CFI-HSA wild type) (human C4b (human) [3]) | C4c EC50 (human C4b (human) [1]) [nM] | iC3b Screen Ref Fold (fold of CFI-HSA wild type) [2] | C4b Screen Ref Fold (fold of CFI-HSA wild type) (human C4b (human) [3])
CFI-HSA variant Y408L; N531G; K534Q (enzyme) | – | – | – | 64.3 | 1.03 | 5.13
CFI-HSA variant Y408F; N531G (enzyme) | 75.7 | 1.24 | 5.78 | – | – | –
CFI-HSA variant Y553H; P558S (enzyme) | – | – | – | 122 | 0.63 | 2.14
CFI-HSA variant N531G; P535G; P558S (enzyme) | – | – | – | 136 | 0.95 | 3.82
CFI-HSA variant Y408L; N531G; E461Q (enzyme) | 51.5 | 1.21 | 6.68 | – | – | –
CFI-HSA variant K488E (enzyme) | – | – | – | > 1000 | 1.07 | 0.78
CFI-HSA variant E457G; N531G; E461Q; R462K; F464Y (enzyme) | 37.9 | 0.83 | 5.97 | – | – | –
CFI-HSA variant E457G; P535G; K534Q (enzyme) | – | – | – | 154 | 0.82 | 3.85
CFI-HSA variant Y553H (enzyme) | 166 | – | – | 85.5 | 0.52 | 4.13
CFI-HSA variant S552G; Y553H; F559L; V565I (enzyme) | – | – | – | 83.6 | 0.27 | 3.1
CFI-HSA variant S552G; Y553H; P558S (enzyme) | – | – | – | 139 | 0.44 | 2.04
CFI-HSA variant Y408L; E457G; N531G; P535G (enzyme) | – | – | – | 50.5 | 1.06 | 5.28
CFI-HSA variant Y408L; E457G; N422K (enzyme) | – | – | – | 43.6 | 1.87 | 3.1
CFI-HSA variant N531G; P535G (enzyme) | – | – | – | 126 | 1.28 | 4.19
CFI-HSA variant F464G (enzyme) | – | – | – | > 1000 | 0.01 | 0.24
CFI-HSA variant Y408L; N531G; P558S (enzyme) | – | – | – | 77.5 | 1.05 | 5.11
CFI-HSA variant Y408P (enzyme) | 338 | 0.02 | -0.01 | – | – | –
CFI-HSA variant S552G; Y553H (enzyme) | – | – | – | 74.5 | 0.26 | 2.53
